The experiment concerns the target NEUFcε (Arthrobacter urefaciens;mouse, UniProt P06336 99-421). As to the kind of experiment: BLI. On the technique in general: In BLI a coated tip is dipped into the sample, and binding shifts an interference pattern.

Bounds are passed on as bounds.

What is called Kd is the equilibrium constant for the complex coming apart.

B1: hFcεRIα (receptor)
chain: VPQKPKVSLNPPWNRIFKGENVTLTCNGNNFFEVSSTKWFHNGSLSEETNSSLNIVNAKFEDSGEYKCQHQQVNESEPVYLEVFSDWLLLQASAEVVMEGQPLFLRCHGWRNWDVYKVIYYKDGEALKYWYENHNISITNATVEDSGTYYCTGKVWQLDYESEPLNITVIKAPREKYWLQ
On to B1, for which the Kd is less than 1 pM.
